Assay results as given in patent publication EP4725969A1 (Latticon (Suzhou) Biopharmaceuticals Co., Ltd., dated 2024).

B1: 2126-Hu-L02 (antibody, IgG1, V domains shown)
VH: QVQLVQSGSELKKPGASVKVSCKASGYTFTDYSMHWVRQAPGQGLEWMGWINTETGEPTYADDFKGRFVFSLDTSVSTAYLQISSLKAEDTAVYFCVRVGRYDYAMDYWGQGTTVTVSS
VL: DIQMTQSPSSLSASVGDRVTITCRASQDVYTAVAWYQQKPGKAPKLLINSASYRYTGVPSRFSGSGSGTDFTLTISSLQPEDFATYYCQQHYSTPPTFGGGTKVEIK
notes: IgG1/Cκ
B2: 2126-Hu-L03 (antibody, IgG1, V domains shown)
VH: QVQLVQSGSELKKPGASVKVSCKASGYTFTDYSMHWVRQAPGQGLEWMGWINTETGEPTYADDFKGRFVFSLDTSVSTAYLQISSLKAEDTAVYFCVRVGRYDYAMDYWGQGTTVTVSS
VL: DIQMTQSPSSLSASVGDRVTITCKASQDVSTAVAWYQQKPGKAPKLLINSASYRYTGVPSRFSGSGSGTDFTLTISSLQPEDFATYYCQQHYSTPPTFGGGTKVEIK
notes: IgG1/Cκ
B3: 2126-Hu-L04 (antibody, IgG1, V domains shown)
VH: QVQLVQSGSELKKPGASVKVSCKASGYTFTDYSMHWVRQAPGQGLEWMGWINTETGEPTYADDFKGRFVFSLDTSVSTAYLQISSLKAEDTAVYFCVRVGRYDYAMDYWGQGTTVTVSS
VL: DIQMTQSPSSLSASVGDRVTITCKASQDVYTYVAWYQQKPGKAPKLLINSASYRYTGVPSRFSGSGSGTDFTLTISSLQPEDFATYYCQQHYSTPPTFGGGTKVEIK
notes: IgG1/Cκ
B4: 2126-Hu-L05 (antibody, IgG1, V domains shown)
VH: QVQLVQSGSELKKPGASVKVSCKASGYTFTDYSMHWVRQAPGQGLEWMGWINTETGEPTYADDFKGRFVFSLDTSVSTAYLQISSLKAEDTAVYFCVRVGRYDYAMDYWGQGTTVTVSS
VL: DIQMTQSPSSLSASVGDRVTITCKASQDVYTAVAWYQQKPGKAPKLLIYSASYRYTGVPSRFSGSGSGTDFTLTISSLQPEDFATYYCQQHYSTPPTFGGGTKVEIK
notes: IgG1/Cκ
B5: 2126-Hu-L06 (antibody, IgG1, V domains shown)
VH: QVQLVQSGSELKKPGASVKVSCKASGYTFTDYSMHWVRQAPGQGLEWMGWINTETGEPTYADDFKGRFVFSLDTSVSTAYLQISSLKAEDTAVYFCVRVGRYDYAMDYWGQGTTVTVSS
VL: DIQMTQSPSSLSASVGDRVTITCKASQDVYTAVAWYQQKPGKAPKLLINAASYRYTGVPSRFSGSGSGTDFTLTISSLQPEDFATYYCQQHYSTPPTFGGGTKVEIK
notes: IgG1/Cκ
B6: 2126-Hu-L07 (antibody, IgG1, V domains shown)
VH: QVQLVQSGSELKKPGASVKVSCKASGYTFTDYSMHWVRQAPGQGLEWMGWINTETGEPTYADDFKGRFVFSLDTSVSTAYLQISSLKAEDTAVYFCVRVGRYDYAMDYWGQGTTVTVSS
VL: DIQMTQSPSSLSASVGDRVTITCKASQDVYTAVAWYQQKPGKAPKLLINSASDRYTGVPSRFSGSGSGTDFTLTISSLQPEDFATYYCQQHYSTPPTFGGGTKVEIK
notes: IgG1/Cκ
B7: 2126-Hu-L08 (antibody, IgG1, V domains shown)
VH: QVQLVQSGSELKKPGASVKVSCKASGYTFTDYSMHWVRQAPGQGLEWMGWINTETGEPTYADDFKGRFVFSLDTSVSTAYLQISSLKAEDTAVYFCVRVGRYDYAMDYWGQGTTVTVSS
VL: DIQMTQSPSSLSASVGDRVTITCKASQDVYTAVAWYQQKPGKAPKLLINSASERYTGVPSRFSGSGSGTDFTLTISSLQPEDFATYYCQQHYSTPPTFGGGTKVEIK
notes: IgG1/Cκ
B8: 2126-Hu-L09 (antibody, IgG1, V domains shown)
VH: QVQLVQSGSELKKPGASVKVSCKASGYTFTDYSMHWVRQAPGQGLEWMGWINTETGEPTYADDFKGRFVFSLDTSVSTAYLQISSLKAEDTAVYFCVRVGRYDYAMDYWGQGTTVTVSS
VL: DIQMTQSPSSLSASVGDRVTITCKASQDVYTAVAWYQQKPGKAPKLLINSASKRYTGVPSRFSGSGSGTDFTLTISSLQPEDFATYYCQQHYSTPPTFGGGTKVEIK
notes: IgG1/Cκ

These binders were tested against T1, recombinant human HER2 extracellular domain protein (human, UniProt P04626 23-652) (assay: BLI, Protein A capture).
T1 construct: range 23-652; Range is printed for the immunogen/panning protein; also called ErbB2; recombinant HER2 protein

First: B1
Second: B2
The Kd of the first is 7.1-fold lower: 5.58 nM for the first, 39.5 nM for the second.

B3 and B4 are within 1.5-fold of each other in Kd: 13.9 nM for the first, 13.4 nM for the second.

B5 and B6 are within 1.5-fold of each other in Kd: 6.63 nM for the first, 6.46 nM for the second.

B7 and B8 are within 1.5-fold of each other in Kd: 6.57 nM for the first, 5.11 nM for the second.

First: B1
Second: B2
The koff of the first is 3.4-fold lower: 0.000551 s⁻¹ for the first, 0.00186 s⁻¹ for the second.

Compared with B3, B4 is 2.3-fold higher in koff: 0.000611 s⁻¹ for the first, 0.00139 s⁻¹ for the second.

B5 and B6 are within 1.5-fold of each other in koff: 0.000659 s⁻¹ for the first, 0.00061 s⁻¹ for the second.

B7 and B8 are within 1.5-fold of each other in koff: 0.00062 s⁻¹ for the first, 0.00049 s⁻¹ for the second.

Going from B1 to B2, the kon falls from 98700 M⁻¹ s⁻¹ to 47100 M⁻¹ s⁻¹ (2.1-fold).

Going from B3 to B4, the kon rises from 43900 M⁻¹ s⁻¹ to 104000 M⁻¹ s⁻¹ (2.4-fold).

B5 and B6 are within 1.5-fold of each other in kon: 99400 M⁻¹ s⁻¹ for the first, 94300 M⁻¹ s⁻¹ for the second.

B7 and B8 are within 1.5-fold of each other in kon: 94300 M⁻¹ s⁻¹ for the first, 95900 M⁻¹ s⁻¹ for the second.
